Consider four molecules from patent US20240059799A1 (Pfizer, published 2024).

For assay [1], the target named is T1, human IL-23 (human, UniProt P29460 23-328; Q9NPF7 20-189).
T1 construct: Heterodimer p40/p19; Whole entries as named; also called IL-23 Human; recombinant human IL-23
T1 sequence 1: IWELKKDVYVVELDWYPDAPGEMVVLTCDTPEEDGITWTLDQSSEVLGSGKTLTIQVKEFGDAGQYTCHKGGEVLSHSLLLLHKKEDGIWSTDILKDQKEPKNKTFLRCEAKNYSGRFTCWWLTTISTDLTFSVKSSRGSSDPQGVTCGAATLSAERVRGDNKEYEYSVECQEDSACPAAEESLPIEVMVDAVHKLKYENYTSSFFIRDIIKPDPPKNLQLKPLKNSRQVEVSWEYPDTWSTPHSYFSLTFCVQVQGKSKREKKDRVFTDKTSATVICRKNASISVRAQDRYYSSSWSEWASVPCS
T1 sequence 2: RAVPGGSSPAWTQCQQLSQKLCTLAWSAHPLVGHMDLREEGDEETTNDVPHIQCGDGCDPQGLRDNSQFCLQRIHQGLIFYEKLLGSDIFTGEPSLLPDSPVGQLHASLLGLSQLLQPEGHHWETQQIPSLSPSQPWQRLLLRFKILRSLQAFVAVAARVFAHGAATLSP
Briefly: SPR, bispecific held on captured biotinylated human TL1A, then human IL-23 injected (simultaneous binding). The procedure:
SPR was used to determine if the bispecific variants could simultaneously bind TL1A and IL-23, containing the p40 domain. For this analysis, a semi-quantitative SPR method was developed using Biacore™ T200 (GE Healthcare) instrumentation. […] The bispecific was injected for 90 seconds at a concentration of 20 μg/m L, a flow rate of 50 μL/minute, and captured to a level of approximately 40-150 RU. Next, recombinant human IL-23 was injected for 60 seconds and a flow rate of 50 μL/minute at a concentration range of 0.37-15 nM.
(In general: SPR reads the build-up and loss of mass on a sensor chip optically.)

The next assay addresses T2, recombinant human TL1A (human, UniProt O95150 71-251).
T2 construct: Homotrimeric cytokine; biotinylated with Sulfo-NHS-biotin where captured for SPR, coated unlabelled in ELISA, soluble in bioassays; also called TNFSF15
T2 chain: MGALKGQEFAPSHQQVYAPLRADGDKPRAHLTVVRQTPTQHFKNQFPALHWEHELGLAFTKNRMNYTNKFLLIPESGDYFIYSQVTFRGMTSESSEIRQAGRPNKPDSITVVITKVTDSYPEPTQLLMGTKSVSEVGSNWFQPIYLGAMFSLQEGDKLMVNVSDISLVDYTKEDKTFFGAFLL
Briefly: SPR 37 C, biotinylated human TL1A captured, bispecific injected. The procedure:
(§1) SPR was utilized to determine if the affinity constants of each arm of the bispecific variants binding human IL-23, containing the p40 subunit, and human TL1A were the same for each bispecific approach. For the analysis of the p40 binding arm, kinetic assays were conducted at 37° C. using a collection rate of 10 Hz on a Biacore™ 8 K+ instrument (GE Healthcare). An anti-human IgG antibody (anti-human Fc, GE Healthcare, 22-0648-88) was amine coupled to all four flow cells of a carboxymethylated dextran coated sensor chip (GE Healthcare,) using the manufacturer's recommended protocol. […] For the analysis of the TL1A binding arm, kinetic assays were conducted at 37° C. using a collection rate of 10 Hz on a Biacore™ T200 instrument (GE Healthcare).

Assay [2] has as its target T1, human IL-23. Briefly: SPR 37 C, bispecific captured by anti-human Fc, human IL-23 injected. The procedure:
as §1

B1: p40TL1A-0018 (bispecific antibody, human IgG1, kappa)
heavy 1: EVQLVQSGAEVKKPGESLKISCKGSGYSFTTYWLGWVRQMPGKGLDWIGIMSPVDSDIRYSPSFQGQVTMSVDKSITTAYLQWNSLKASDTAMYYCARRRPGQGYFDFWGQGTLVTVSSASTKGPSVFPLAPSSKSTSGGTAALGCLVKDYFPEPVTVSWNSGALTSGVHTFPAVLQSSGLYSLSSVVTVPSSSLGTQTYICNVNHKPSNTKVDKKVEPKSCDKTHTCPPCPAPEAAGAPSVFLFPPKPKDTLMISRTPEVTCVVVDVSHEDPEVKFNWYVDGVEVHNAKTKPREEQYNSTYRVVSVLTVLHQDWLNGKEYKCKVSNKALPAPIEKTISKAKGQPREPQVYTLPPSREEMTKNQVSLWCLVKGFYPSDIAVEWESNGQPENNYKTTPPVLDSDGSFFLYSKLTVDKSRWQQGNVFSCSVLHEALHSHYTQKSLSLSPGK
light 1: not shown
heavy 2: QVQLVQSGAEVKKPGASVKVSCKASGYDYTYYGISWVRQAPGQGLEWMGWISTYNTGTHYAPSLQGRVTMTTDTSTSTAYMELRSLRSDDTAVYYCARESYYGSGAFRGGMDVWGQGTTVTVSSASTKGPSVFPLAPSSKSTSGGTAALGCLVKDYFPEPVTVSWNSGALTSGVHTFPAVLQSSGLYSLSSVVTVPSSSLGTQTYICNVNHKPSNTKVDKKVEPKSCDKTHTCPPCPAPEAAGAPSVFLFPPKPKDTLMISRTPEVTCVVVDVSHEDPEVKFNWYVDGVEVHNAKTKPREEQYNSTYRVVSVLTVLHQDWLNGKEYKCKVSNKALPAPIEKTISKAKGQPREPQVYTLPPSREEMTKNQVSLSCAVKGFYPSDIAVEWESNGQPENNYKTTPPVLDSDGSFFLVSKLTVDKSRWQQGNVFSCSVLHEALHSHYTQKSLSLSPGK
light 2: not shown
notes: dual cell, KiH without Cys in CH3, LS
B1: the results for the Kd in the assay with human IL-23 [1], in the assay with recombinant human TL1A and with human IL-23 [2] were 94.4 pM, 217 pM and 659 pM, respectively. Moreover, the koff – broadly, the first-order rate constant of dissociation – with human IL-23 [1] is 0.000521 s⁻¹; with recombinant human TL1A, 4.87e-05 s⁻¹; with human IL-23 [2], 0.00121 s⁻¹. For the same molecule, the results for the on-rate constant (kon) with human IL-23 [1], with recombinant human TL1A and in the assay with human IL-23 [2] were 5.51e+06 M⁻¹ s⁻¹, 224000 M⁻¹ s⁻¹ and 1.83e+06 M⁻¹ s⁻¹, respectively.

B2: p40TL1A-0033 (bispecific antibody, human IgG1, kappa)
heavy: EVQLVQSGAEVKKPGESLKISCKGSGYSFTTYWLGWVRQMPGKGLDWIGIMSPVDSDIRYSPSFQGQVTMSVDKSITTAYLQWNSLKASDTAMYYCARRRPGQGYFDFWGQGTLVTVSSASTKGPSVFPLAPSSKSTSGGTAALGCLVKDYFPEPVTVSWNSGALTSGVHTFPAVLQSSGLYSLSSVVTVPSSSLGTQTYICNVNHKPSNTKVDKKVEPKSCDKTHTCPPCPAPEAAGAPSVFLFPPKPKDTLMISRTPEVTCVVVDVSHEDPEVKFNWYVDGVEVHNAKTKPREEQYNSTYRVVSVLTVLHQDWLNGKEYKCKVSNKALPAPIEKTISKAKGQPREPQVCTLPPSREEMTKNQVSLWCLVKGFYPSDIAVEWESNGQPENNYKTTPPVLDSDGSFFLYSKLTVDKSRWQQGNVFSCSVLHEALHSHYTQKSLSLSPGK
light: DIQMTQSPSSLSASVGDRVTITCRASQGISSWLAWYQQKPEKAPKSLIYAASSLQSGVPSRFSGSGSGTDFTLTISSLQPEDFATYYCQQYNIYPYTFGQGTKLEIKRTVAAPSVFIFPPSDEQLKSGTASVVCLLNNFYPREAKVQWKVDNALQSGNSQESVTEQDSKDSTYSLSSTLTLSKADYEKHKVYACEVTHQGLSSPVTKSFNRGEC
chain 1: not shown
chain 2: QVQLVQSGAEVKKPGASVKVSCKASGYDYTYYGISWVRQAPGQGLEWMGWISTYNTGTHYAPSLQGRVTMTTDTSTSTAYMELRSLRSDDTAVYYCARESYYGSGAFRGGMDVWGQGTTVTVSSASTKGPSVFPLAPSSKSTSGGTAALGCLVKDYFPEPVTVSWNSGALTSGVHTFPAVLQSSGLYSLSSVVTVPSSSLGTQTYICNVNHKPSNTKVDKKVEPKSC
notes: single cell, KiH, modified Fd, LS
B2: in the assay with human IL-23 [1], the dissociation constant Kd (commonly a measure of binding affinity in units of concentration) came out at 79.1 pM; the koff was found to be 0.000519 s⁻¹; the kon (as a rule, a measure of how fast the partners come together) is 6.56e+06 M⁻¹ s⁻¹. Moreover, in the assay with recombinant human TL1A, the dissociation constant Kd was 253 pM, the dissociation rate constant (koff) amounted to 5.52e-05 s⁻¹ and the kon came out at 218000 M⁻¹ s⁻¹. In the assay with human IL-23 [2], this molecule displayed a Kd of 557 pM, a koff of 0.00115 s⁻¹ and a kon of 2.07e+06 M⁻¹ s⁻¹.

B3: p40TL1A-0032 (bispecific antibody)
heavy 1: EVQLVQSGAEVKKPGESLKISCKGSGYSFTTYWLGWVRQMPGKGLDWIGIMSPVDSDIRYSPSFQGQVTMSVDKSITTAYLQWNSLKASDTAMYYCARRRPGQGYFDFWGQGTLVTVSSASTKGPSVFPKAPSSKSTSGGTAALGCLVKDYFPEPVTVSWNSGALTSGVHTFPAVLQSSGLYSLSSSVTVPSSSLGTQTYICNVNHKPSNTKVDKKVEPKSCDKTHTCPPCPAPEAAGAPSVFLFPPKPKDTLMISRTPEVTCVVVDVSHEDPEVKFNWYVDGVEVHNAKTKPREEQYNSTYRVVSVLTVLHQDWLNGKEYKCKVSNKALPAPIEKTISKAKGQPREPQVCTLPPSREEMTKNQVSLWCLVKGFYPSDIAVEWESNGQPENNYKTTPPVLDSDGSFFLYSKLTVDKSRWQQGNVFSCSVLHEALHSHYTQKSLSLSPGK
light 1: DIQMTQSPSSLSASVGDRVTITCRASQGISSWLAWYQQKPEKAPKSLIYAASSLQSGVPSRFSGSGSGTDFTLTISSLQPEDFATYYCQQYNIYPYTFGQGTKLEIKRTVAAPSVFIFPPSDEQLKSGTASVSCLLNNFYPREAKVQWKVDNALQSGNSQESVTEQDSKDSTYSLDSTLTLSKADYEKHKVYACEVTHQGLSSPVTKSFNRGEC
heavy 2: QVQLVQSGAEVKKPGASVKVSCKASGYDYTYYGISWVRQAPGQGLEWMGWISTYNTGTHYAPSLQGRVTMTTDTSTSTAYMELRSLRSDDTAVYYCARESYYGSGAFRGGMDVWGQGTTVTVSSASTKGPSVFPEAPSSKSTSGGTAALGCLVKDYFPEPVTVSWNSGALTSGVHTFPAVLQSSGLYSLGSVVTVPSSSLGTQTYICNVNHKPSNTKVDKKVEPKSCDKTHTCPPCPAPEAAGAPSVFLFPPKPKDTLMISRTPEVTCVVVDVSHEDPEVKFNWYVDGVEVHNAKTKPREEQYNSTYRVVSVLTVLHQDWLNGKEYKCKVSNKALPAPIEKTISKAKGQPREPQVYTLPPCREEMTKNQVSLSCAVKGFYPSDIAVEWESNGQPENNYKTTPPVLDSDGSFFLVSKLTVDKSRWQQGNVFSCSVLHEALHSHYTQKSLSLSPGK
light 2: not shown
notes: single cell, KiH, S1-S1rev, LS
In the case of B3, the values for the Kd in the assay with human IL-23 [1], with recombinant human TL1A and with human IL-23 [2] were 78.8 pM, 254 pM and 567 pM, respectively. For the same molecule, the figures for the koff with human IL-23 [1], with recombinant human TL1A and with human IL-23 [2] were 0.000546 s⁻¹, 6.15e-05 s⁻¹ and 0.00109 s⁻¹, respectively. Further, the kon stood at 6.93e+06 M⁻¹ s⁻¹ in the assay with human IL-23 [1], 243000 M⁻¹ s⁻¹ in the assay with recombinant human TL1A and 1.92e+06 M⁻¹ s⁻¹ with human IL-23 [2].

B4: p40TL1A-0021 (bispecific antibody)
heavy 1: EVQLVQSGAEVKKPGESLKISCKGSGYSFTTYWLGWVRQMPGKGLDWIGIMSPVDSDIRYSPSFQGQVTMSVDKSITTAYLQWNSLKASDTAMYYCARRRPGQGYFDFWGQGTLVTVSSASTKGPSVFPLAPSSKSTSGGTAALGCLVKDYFPEPVTVSWNSGALTSGVHTFPAVLQSSGLYSLSSVVTVPSSSLGTQTYICNVNHKPSNTKVDKKVEPKSCRKTHTCPPCPAPEAAGAPSVFLFPPKPKDTLMISRTPEVTCVVVDVSHEDPEVKFNWYVDGVEVHNAKTKPREEQYNSTYRVVSVLTVLHQDWLNGKEYKCKVSNKALPAPIEKTISKAKGQPREPQVYTLPPSREEMTKNQVSLTCLVKGFYPSDIAVEWESNGQPENNYKTTPPVLDSDGSFFLYSRLTVDKSRWQQGNVFSCSVLHEALHSHYTQKSLSLSPGK
light 1: not shown
heavy 2: QVQLVQSGAEVKKPGASVKVSCKASGYDYTYYGISWVRQAPGQGLEWMGWISTYNTGTHYAPSLQGRVTMTTDTSTSTAYMELRSLRSDDTAVYYCARESYYGSGAFRGGMDVWGQGTTVTVSSASTKGPSVFPLAPSSKSTSGGTAALGCLVKDYFPEPVTVSWNSGALTSGVHTFPAVLQSSGLYSLSSVVTVPSSSLGTQTYICNVNHKPSNTKVDKKVEPKSCEKTHTCPPCPAPEAAGAPSVFLFPPKPKDTLMISRTPEVTCVVVDVSHEDPEVKFNWYVDGVEVHNAKTKPREEQYNSTYRVVSVLTVLHQDWLNGKEYKCKVSNKALPAPIEKTISKAKGQPREPQVYTLPPSREEMTKNQVSLTCEVKGFYPSDIAVEWESNGQPENNYKTTPPVLDSDGSFFLYSKLTVDKSRWQQGNVFSCSVLHEALHSHYTQKSLSLSPGK
light 2: not shown
notes: dual cell, EE/RR, LS
In the assay with human IL-23 [1], B4 displayed a Kd of 73.8 pM, a koff of 0.000524 s⁻¹ and a kon of 7.11e+06 M⁻¹ s⁻¹. Further, in the assay with recombinant human TL1A, the Kd came to 183 pM, the off-rate constant (koff) turned out to be 5.6e-05 s⁻¹ and the on-rate (kon) came to 307000 M⁻¹ s⁻¹. In the assay with human IL-23 [2], this molecule registered a Kd of 859 pM, a koff of 0.00152 s⁻¹ and a kon of 1.77e+06 M⁻¹ s⁻¹.
